Data as given in the Immune Epitope Database (IEDB).
Values belong to the sequence of their own block, whether it stands above or below them.

Experiments:
HLA-A*24:03 = experiment: IEDB peptide-MHC binding, purified MHC/direct/fluorescence; filed as Kd, often an IC50 or EC50 that approximates it; ≥ and ≤ were set here for values at or beyond the usual limits of such assays
HLA-A*31:01 = experiment: as above
HLA-B*44:02 = experiment: as above; conditions: source organism: Vibrio cholerae
HLA-B*08:01 [1] = experiment: as above; conditions: source organism: Vibrio cholerae
HLA-B*58:01 = experiment: as above
HLA-B*40:01 = experiment: as above
HLA-A*01:01 = experiment: as above
HLA-A*11:01 = experiment: as above
HLA-A*69:01 [2] = experiment: as above
HLA-A*03:01 = experiment: as above
HLA-B*27:05 = experiment: as above
HLA-B*07:02 = experiment: as above; conditions: source organism: Vibrio cholerae
HLA-A*26:01 [3] = experiment: as above
HLA-B*15:01 [4] = experiment: as above
HLA-A*02:01 [5] = experiment: as above
HLA-A*02:50 = experiment: IEDB peptide-MHC binding, purified MHC/competitive/fluorescence; filed as Kd, often an IC50 or EC50 that approximates it; ≥ and ≤ were set here for values at or beyond the usual limits of such assays
HLA-C*14:02 = experiment: IEDB peptide-MHC binding, purified MHC/direct/fluorescence; filed as Kd, often an IC50 or EC50 that approximates it; ≥ and ≤ were set here for values at or beyond the usual limits of such assays; conditions: source organism: Vibrio vulnificus YJ016
HLA-C*04:01 = experiment: as above
HLA-A*30:01 [6] = experiment: IEDB peptide-MHC binding, purified MHC/competitive/fluorescence; filed as Kd, often an IC50 or EC50 that approximates it; ≥ and ≤ were set here for values at or beyond the usual limits of such assays; conditions: source organism: Human immunodeficiency virus 1
HLA-C*12:03 = experiment: IEDB peptide-MHC binding, purified MHC/direct/fluorescence; filed as Kd, often an IC50 or EC50 that approximates it; ≥ and ≤ were set here for values at or beyond the usual limits of such assays; conditions: source organism: Mycobacterium tuberculosis variant bovis BCG str. Pasteur 1173P2
HLA-C*03:03 = experiment: as above
HLA-C*08:02 = experiment: as above
HLA-B*08:01 [7] = experiment: IEDB peptide-MHC binding, purified MHC/competitive/fluorescence; filed as Kd, often an IC50 or EC50 that approximates it; ≥ and ≤ were set here for values at or beyond the usual limits of such assays; conditions: source organism: Influenza A virus (A/Harbin/1/1988(H1N2))
HLA-A*23:01 = experiment: IEDB peptide-MHC binding, purified MHC/direct/fluorescence; filed as Kd, often an IC50 or EC50 that approximates it; ≥ and ≤ were set here for values at or beyond the usual limits of such assays
HLA-A*02:12 = experiment: as above
HLA-A*02:03 = experiment: as above
HLA-A*02:19 = experiment: as above
HLA-A*29:02 = experiment: as above; conditions: source organism: Zaire ebolavirus
HLA-A*02:11 = experiment: as above
HLA-A*68:02 = experiment: as above
HLA-A*02:16 = experiment: as above
HLA-B*27:03 = experiment: IEDB peptide-MHC binding, purified MHC/competitive/fluorescence; filed as Kd, often an IC50 or EC50 that approximates it; ≥ and ≤ were set here for values at or beyond the usual limits of such assays
HLA-B*18:01 = experiment: as above
HLA-B*46:01 = experiment: as above; conditions: source organism: Zaire ebolavirus
HLA-B*39:01 = experiment: as above
HLA-B*57:01 = experiment: as above; conditions: source organism: Zaire ebolavirus
HLA-A*69:01 [8] = experiment: as above
HLA-A*26:01 [9] = experiment: as above
HLA-B*15:01 [10] = experiment: as above; conditions: source organism: Zaire ebolavirus
HLA-B*51:01 = experiment: as above
HLA-A*02:01 [11] = experiment: as above
HLA-C*05:01 = experiment: IEDB peptide-MHC binding, purified MHC/direct/fluorescence; filed as Kd, often an IC50 or EC50 that approximates it; ≥ and ≤ were set here for values at or beyond the usual limits of such assays; conditions: source organism: Brucella abortus S19
HLA-A*30:01 [12] = experiment: as above; conditions: source organism: Kurkino virus
[13] = source organism: Vibrio cholerae
[14] = source organism: Mycobacterium tuberculosis variant bovis BCG str. Pasteur 1173P2
[15] = source organism: Haemophilus influenzae
[16] = source organism: Zaire ebolavirus
[17] = source organism: Cryptosporidium parvum Iowa II
[18] = source organism: Bacillus anthracis str. A0193
[19] = source organism: Brucella abortus 2308
[20] = source organism: Orthohantavirus dobravaense

Sequence: ALYWALMES
Kd (HLA-A*24:03; [13]): ≥ 20000 nM | Kd (HLA-A*31:01; [13]): ≥ 20 µM | Kd (HLA-B*44:02): ≥ 20 µM | Kd (HLA-B*08:01 [1]): ≥ 20 µM | Kd (HLA-B*58:01; [13]): ≥ 20 µM | Kd (HLA-B*40:01; [13]): ≥ 20 µM | Kd (HLA-A*01:01; [13]): ≥ 20 µM | Kd (HLA-A*11:01; [13]): ≥ 20 µM | Kd (HLA-A*69:01 [2]; [13]): ≥ 20000 nM | Kd (HLA-A*03:01; [13]): ≥ 20 µM | Kd (HLA-B*27:05; [13]): ≥ 20 µM | Kd (HLA-B*07:02): ≥ 20 µM | Kd (HLA-A*26:01 [3]; [13]): ≥ 20 µM | Kd (HLA-B*15:01 [4]; [13]): ≥ 20 µM | Kd (HLA-A*02:01 [5]; [13]): 21 nM | Kd (HLA-A*02:50; source organism: Vibrio cholerae 2740-80): 0.2 nM

Sequence: AYFLEAQEM
Kd (HLA-A*24:03; source organism: Vibrio vulnificus): 3.6 nM | Kd (HLA-C*14:02): ≤ 1 nM | Kd (HLA-C*04:01; source organism: Vibrio vulnificus YJ016): ≥ 20 µM

Sequence: EELRSLYNTV
Kd (HLA-A*30:01 [6]): ≥ 20 µM

Sequence: FLADYGWRL
Kd (HLA-C*12:03): 413 nM | Kd (HLA-A*69:01 [2]; source organism: Mycobacterium tuberculosis): 663 nM | Kd (HLA-C*03:03; [14]): 26 nM | Kd (HLA-C*08:02; [14]): 57 nM

Kd (HLA-A*31:01; [15]): ≥ 20 µM | Kd (HLA-B*58:01; [15]): ≥ 20 µM | Kd (HLA-B*40:01; [15]): ≥ 20 µM | Kd (HLA-A*01:01; [15]): ≥ 20 µM | Kd (HLA-A*11:01; [15]): ≥ 20 µM | Kd (HLA-A*69:01 [2]; [15]): ≥ 20000 nM | Kd (HLA-A*03:01; [15]): ≥ 20 µM | Kd (HLA-B*27:05; [15]): ≥ 20 µM | Kd (HLA-A*26:01 [3]; [15]): ≥ 20 µM | Kd (HLA-B*15:01 [4]; [15]): ≥ 20 µM | Kd (HLA-A*02:01 [5]; [15]): 1360 nM | Kd (HLA-A*02:50; source organism: Haemophilus influenzae R2846): 1.9 nM
Sequence: FLADYRGKT

Sequence: IAPWYAFAL
Kd (HLA-C*08:02; source organism: Influenza A virus (A/Harbin/1/1988(H1N2))): 3340 nM | Kd (HLA-B*08:01 [7]): 7.56 µM

Sequence: LTDRELLLL
Kd (HLA-A*24:03; [16]): ≥ 20000 nM | Kd (HLA-A*23:01; [16]): ≥ 20 µM | Kd (HLA-A*02:12; [16]): ≥ 20 µM | Kd (HLA-A*02:03; [16]): ≥ 20 µM | Kd (HLA-A*02:19; [16]): ≥ 20 µM | Kd (HLA-A*29:02): ≥ 20 µM | Kd (HLA-A*02:11; [16]): ≥ 20 µM | Kd (HLA-A*01:01; source organism: Sudan ebolavirus - Uganda (2000)): 0.255 µM | Kd (HLA-A*68:02; [16]): ≥ 20 µM | Kd (HLA-A*03:01; [16]): ≥ 20 µM | Kd (HLA-A*02:16; [16]): ≥ 20 µM | Kd (HLA-B*27:03; [16]): ≥ 20 µM | Kd (HLA-B*18:01; [16]): ≥ 20 µM | Kd (HLA-B*46:01): ≥ 20 µM | Kd (HLA-B*39:01; [16]): ≥ 20 µM | Kd (HLA-B*57:01): ≥ 20 µM | Kd (HLA-A*69:01 [8]; [16]): ≥ 20 µM | Kd (HLA-A*26:01 [9]; [16]): ≥ 20 µM | Kd (HLA-B*15:01 [10]): ≥ 20 µM | Kd (HLA-B*51:01; [16]): ≥ 20 µM | Kd (HLA-A*02:01 [11]; [16]): ≥ 20 µM

Sequence: MSQMPPHPY
Kd (HLA-A*24:03; [17]): ≥ 20000 nM | Kd (HLA-A*23:01; [17]): ≥ 20 µM | Kd (HLA-A*02:12; [17]): ≥ 20 µM | Kd (HLA-A*02:03; [17]): ≥ 20 µM | Kd (HLA-A*02:19; [17]): ≥ 20 µM | Kd (HLA-A*02:11; [17]): ≥ 20 µM | Kd (HLA-A*11:01; [17]): 0.377 µM | Kd (HLA-A*68:02; [17]): ≥ 20 µM | Kd (HLA-A*03:01; [17]): ≥ 20 µM | Kd (HLA-A*02:16; [17]): ≥ 20 µM | Kd (HLA-B*27:03; [17]): ≥ 20 µM | Kd (HLA-B*18:01; [17]): ≥ 20 µM | Kd (HLA-B*39:01; [17]): ≥ 20 µM | Kd (HLA-A*69:01 [8]; [17]): ≥ 20 µM | Kd (HLA-A*26:01 [9]; [17]): ≥ 20 µM | Kd (HLA-B*51:01; [17]): ≥ 20 µM | Kd (HLA-A*02:01 [11]; [17]): ≥ 20 µM

Sequence: YAIYTLGEM
Kd (HLA-C*04:01; [18]): ≥ 20 µM | Kd (HLA-C*03:03; [18]): ≤ 1 nM

Sequence: YVDIIGLSV
Kd (HLA-A*02:12; source organism: Brucella suis 1330): 0.005 µM | Kd (HLA-A*69:01 [2]; [19]): 8.5 nM | Kd (HLA-C*05:01): 2 nM | Kd (HLA-A*02:01 [5]; [19]): 56 nM | Kd (HLA-A*02:50; source organism: Brucella abortus S19): 9.1 nM

Sequence: YYTEDQGQF
Kd (HLA-A*24:03; [20]): 1.4 nM | Kd (HLA-A*23:01; [20]): 0.0135 µM | Kd (HLA-C*04:01; source organism: Kurkino virus): ≥ 20 µM | Kd (HLA-A*30:01 [12]): ≥ 20 µM
